Experimental data: patent US20210340530A1 (INTELLIA THERAPEUTICS, published 2021)

Assays:
[1] = target: T1, … (VLD) WT1 peptide pulsed on target cells (HLA-02.01 positive T2 cell line; OCI-AML3); assay: cell-based or functional assay
[2] = target: T2, … (RMF) WT1 peptide pulsed on target cells (HLA-02.01 positive T2 cell line; OCI-AML3); assay: cell-based or functional assay
[3] = target: T3, VLD-Tetramer (pMHC tetramer with WT1 peptide …); assay: flow cytometry, VLD-Tetramer staining of engineered T cells; TRAC RNP only
T3 construct: Staining reagent; also called VLD (Wilms' tumor antigen) tetramer; TCR specific pMHC tetramer
Description: (§1) Four to 12 days after RNP nucleofection, edited T cells (200 ul/200,000 cells) were collected in a 96 well round bottom plate and spun down at 500 g for 5 minutes. Cells were then resuspended in an antibody mixture containing a combination of antibodies targeting CD3, CD4, CD8, CD45RO, CD45RA, CD27, CCR7, CD62L, and/or the TCR specific pMHC tetramer or TCR specific Vbeta chain antibody. The mixture was incubated for 45 minutes at room temperature in the dark. Samples were spun down at 500 g for 5 minutes, cell pellets collected, and resuspended in 1:10,000 DAPI (Biolegend—#422801) in FACS buffer. Flow cytometry was then performed using the cytoflex according to the manufacturer's instructions.
(§2) T cells were evaluated with additional engineered TCRs for the impact of endogenous beta chains on pairing of both the inserted alpha chain and inserted beta chain. The experiment was performed as described herein except tetramer staining was used to measure MFI and the AAV inserts in Table 31 were used for transduction.

[4] = target: T1, … (VLD) WT1 peptide pulsed on target …; assay: cell-based or functional assay; remark: listed apart in the source
[5] = target: T2, … (RMF) WT1 peptide pulsed on target …; assay: cell-based or functional assay; remark: listed apart in the source
[6] = target: T3, VLD-Tetramer (pMHC tetramer with WT1 …); assay: flow cytometry, VLD-Tetramer staining of engineered T cells; TRAC + TRBC RNP
Description: as §1, §2

[7] = target: T1, … (VLD) WT1 peptide pulsed on target …; assay: cell-based or functional assay; remark: listed apart in the source
[8] = target: T1, … (VLD) WT1 peptide pulsed on target …; assay: cell-based or functional assay; remark: listed apart in the source
[9] = target: T1, … (VLD) WT1 peptide pulsed on target …; assay: cell-based or functional assay; remark: listed apart in the source
[10] = target: T2, … (RMF) WT1 peptide pulsed on target …; assay: cell-based or functional assay; remark: listed apart in the source
[11] = target: T4, WT1 (Wilms' tumor protein) peptide on HLA-A*02:01 (human); assay: killing
T4 peptide: RMFPNAPYL

B1: TCR-H (WT1-specific T-cell receptor) (TCR, V domains shown)
V domain 1: RKEVEQDPGPFNVPEGATVAFNCTYSNSASQSFFWYRQDCRKEPKLLMSVYSSGNEDGRFTAQLNRASQYISLLIRDSKLSDSATYLCVVKPDPGAGSYQLTFGKGTKLSVIP
V domain 2: NAGVTQTPKFRVLKTGQSMTLLCAQDMNHEYMYWYRQDPGMGLRLIHYSVGEGTTAKGEVPDGYNVSRLKKQNFLLGLESAAPSQTSVYFCASRGYHRLNNEQFFGPGTRLTVLE
notes: also called AV16-TCR-H
B1 was tested, and the “% CD4+ CD107a+; TRAC/TRBC; 0 nM VLD; T2” value [1] was 3.42%, the “% CD4+ CD107a+; TRAC/TRBC; 0.005 nM VLD; T2” value [1] was 3.63% and the “% CD4+ CD107a+; TRAC/TRBC; 0.05 nM VLD; T2” value [1] was 4.48%. For the same binder, the “% CD4+ CD107a+; TRAC/TRBC; 0.5 nM VLD; T2” value [1] was 6.82%, the “% CD4+ CD107a+; TRAC/TRBC; 5 nM VLD; T2” value [1] was 8.09% and the “% CD4+ CD107a+; TRAC/TRBC; 50 nM VLD; T2” value [1] was 8.28%. The “% CD8+ CD107a+; TRAC/TRBC; 0 nM VLD; T2” value [1] was 2.29%, the “% CD8+ CD107a+; TRAC/TRBC; 0.005 nM VLD; T2” value [1] was 5.05% and the “% CD8+ CD107a+; TRAC/TRBC; 0.05 nM VLD; T2” value [1] was 23.6%. The “% CD8+ CD107a+; TRAC/TRBC; 0.5 nM VLD; T2” value [1] was 45.6%, the “% CD8+ CD107a+; TRAC/TRBC; 5 nM VLD; T2” value [1] was 60.7% and the “% CD8+ CD107a+; TRAC/TRBC; 50 nM VLD; T2” value [1] was 70.5%. The “% CD4+ CD107a+; TRAC/TRBC; 50 nM RMF; T2” value [2] was 3.7%, the “% CD8+ CD107a+; TRAC/TRBC; 50 nM RMF; T2” value [2] was 2.64% and the “Mean % Tetramer+ (CD4+)” value [3] was 71.7%. For the same binder, the “Mean % Tetramer+ (CD8+)” value [3] was 68.8%, the “Mean Tetramer MFI (CD4+)” value [3] was 64300 MFI and the “Mean Tetramer MFI (CD8+)” value [3] was 75200 MFI. The “% CD4+ TNFa+ IFNg+; TRAC/TRBC; 0 nM VLD; T2” value [4] was 3.1%, the “% CD4+ TNFa+ IFNg+; TRAC/TRBC; 0.005 nM VLD; T2” value [4] was 2.1% and the “% CD4+ TNFa+ IFNg+; TRAC/TRBC; 0.05 nM VLD; T2” value [4] was 3%. The “% CD4+ TNFa+ IFNg+; TRAC/TRBC; 0.5 nM VLD; T2” value [4] was 4.4%, the “% CD4+ TNFa+ IFNg+; TRAC/TRBC; 5 nM VLD; T2” value [4] was 6% and the “% CD4+ TNFa+ IFNg+; TRAC/TRBC; 50 nM VLD; T2” value [4] was 6.9%. The “% CD8+ TNFa+ IFNg+; TRAC/TRBC; 0 nM VLD; T2” value [4] was 0.5%, the “% CD8+ TNFa+ IFNg+; TRAC/TRBC; 0.005 nM VLD; T2” value [4] was 3.7% and the “% CD8+ TNFa+ IFNg+; TRAC/TRBC; 0.05 nM VLD; T2” value [4] was 27.1%. For the same binder, the “% CD8+ TNFa+ IFNg+; TRAC/TRBC; 0.5 nM VLD; T2” value [4] was 48.7%, the “% CD8+ TNFa+ IFNg+; TRAC/TRBC; 5 nM VLD; T2” value [4] was 67.5% and the “% CD8+ TNFa+ IFNg+; TRAC/TRBC; 50 nM VLD; T2” value [4] was 79.2%. The “% CD4+ TNFa+ IFNg+; TRAC/TRBC; 50 nM RMF; T2” value [5] was 2.9%, the “% CD8+ TNFa+ IFNg+; TRAC/TRBC; 50 nM RMF; T2” value [5] was 0.6% and the “Mean % Tetramer+ (CD4+)” value [6] was 80.2%. The “Mean % Tetramer+ (CD8+)” value [6] was 77.1%, the “Mean Tetramer MFI (CD4+)” value [6] was 131000 MFI and the “Mean Tetramer MFI (CD8+)” value [6] was 139000 MFI. The “IFN-gamma release; TRAC/TRBC; 50 nM VLD; T2” value [7] was 16100, the “IFN-gamma release; TRAC/TRBC; 500 nM VLD; T2” value [7] was 24400 and the “IFN-gamma release; only TRAC; 50 nM VLD; T2” value [7] was 15900. For the same binder, the “IFN-gamma release; only TRAC; 500 nM VLD; T2” value [7] was 24300, the “IL2 release; TRAC only; 0 nM VLD; T2” value [8] was 102 pg/mL and the “IL2 release; TRAC only; 0.005 nM VLD; T2” value [8] was 44 pg/mL. For the same binder, the “IL2 release; TRAC only; 0.05 nM VLD; T2” value [8] was 2 pg/mL, the “IL2 release; TRAC only; 0.5 nM VLD; T2” value [8] was 23 pg/mL and the “IL2 release; TRAC only; 5 nM VLD; T2” value [8] was 175 pg/mL. For the same binder, the “IL2 release; TRAC only; 50 nM VLD; T2” value [8] was 111 pg/mL, the “IL2 release; TRAC only; 500 nM VLD; T2” value [8] was 387 pg/mL and the “IL2 release; TRAC/TRBC; 0 nM VLD; T2” value [8] was 17 pg/mL. For the same binder, the “IL2 release; TRAC/TRBC; 0.005 nM VLD; T2” value [8] was 15 pg/mL, the “IL2 release; TRAC/TRBC; 0.05 nM VLD; T2” value [8] was 40 pg/mL and the “IL2 release; TRAC/TRBC; 0.5 nM VLD; T2” value [8] was 17 pg/mL. The “IL2 release; TRAC/TRBC; 5 nM VLD; T2” value [8] was 30 pg/mL, the “IL2 release; TRAC/TRBC; 50 nM VLD; T2” value [8] was 286 pg/mL and the “IL2 release; TRAC/TRBC; 500 nM VLD; T2” value [8] was 455 pg/mL. The “Caspase 3/7 integrated intensity; TRAC only; 0 nM VLD; T2” value [9] was 6560, the “Caspase 3/7 integrated intensity; TRAC only; 0.005 nM VLD; T2” value [9] was 7650 and the “Caspase 3/7 integrated intensity; TRAC only; 0.05 nM VLD; T2” value [9] was 23600. For the same binder, the “Caspase 3/7 integrated intensity; TRAC only; 0.5 nM VLD; T2” value [9] was 550000, the “Caspase 3/7 integrated intensity; TRAC only; 5 nM VLD; T2” value [9] was 992000 and the “Caspase 3/7 integrated intensity; TRAC only; 50 nM VLD; T2” value [9] was 1.08e+06. The “Caspase 3/7 integrated intensity; TRAC only; 500 nM VLD; T2” value [9] was 1.18e+06, the “Caspase 3/7 integrated intensity; TRAC/TRBC; 0 nM VLD; T2” value [9] was 7390 and the “Caspase 3/7 integrated intensity; TRAC/TRBC; 0.005 nM VLD; T2” value [9] was 9820. For the same binder, the “Caspase 3/7 integrated intensity; TRAC/TRBC; 0.05 nM VLD; T2” value [9] was 32400, the “Caspase 3/7 integrated intensity; TRAC/TRBC; 0.5 nM VLD; T2” value [9] was 628000 and the “Caspase 3/7 integrated intensity; TRAC/TRBC; 5 nM VLD; T2” value [9] was 984000. For the same binder, the “Caspase 3/7 integrated intensity; TRAC/TRBC; 50 nM VLD; T2” value [9] was 1.08e+06, the “Caspase 3/7 integrated intensity; TRAC/TRBC; 500 nM VLD; T2” value [9] was 1.18e+06 and the “Caspase 3/7 integrated intensity; TRAC only; 500 nM RMF; T2” value [10] was 4190. For the same binder, the “Caspase 3/7 integrated intensity; TRAC/TRBC; 500 nM RMF; T2” value [10] was 3890.

B2: TCR-F (TCR, V domains shown)
Valpha: AQKITQTQPGMFVQEKEAVTLDCTYDTSDPSYGLFWYKQPSSGEMIFLIYQGSYDQQNATEGRYSLNFQKARKSANLVISASQLGDSAMYFCAISGNTPLVFGKGTRLSVIA
Vbeta: AAGVIQSPRHLIKEKRETATLKCYPIPRHDTVYWYQQGPGQDPQFLISFYEKMQSDKGSIPDRFSAQQFSDYHSELNMSSLELGDSALYFCASSLRGGLEKLFFGSGTQLSVL
B2: no recognition [11].

B3: TCR-G (TCR, V domains shown)
Valpha: DQQVKQNSPSLSVQEGRISILNCDYTNSMFDYFLWYKKYPAEGPTFLISISSIKDKNEDGRFTVFLNKSAKHLSLHIVPSQPGDSAVYFCAARGQGNLIFGKGTKLSVKP
Vbeta: EAGVAQSPRYKIIEKRQSVAFWCNPISGHATLYWYQQILGQGPKLLIQFQNNGVVDDSQLPKDRFSAERLKGVDSTLKIQPAKLEDSAVYLCASSLYRGEQYFGPGTRLTVT
B3: no recognition [11].

B4: TCR-H (TCR, V domains shown)
Valpha: B1 V domain 1
Vbeta: NAGVTQTPKFRVLKTGQSMTLLCAQDMNHEYMYWYRQDPGMGLRLIHYSVGEGTTAKGEVPDGYNVSRLKKQNFLLGLESAAPSQTSVYFCASRGYHRLNNEQFFGPGTRLTVL
B4: no recognition [11].
